Reference: US20090180995A1, “NOVEL ANTICOAGULANT POLYPEPTIDES AND COMPLEX” (National University of Singapore, priority 2005, published 2009)
“Also recorded” adds a separate entry of the source.

T1: FVIIa (Homo sapiens, UniProt P08709)
T1 construct: from tissue; host or cells: human plasma
T1 sequence (P08709 61-212 limits assumed): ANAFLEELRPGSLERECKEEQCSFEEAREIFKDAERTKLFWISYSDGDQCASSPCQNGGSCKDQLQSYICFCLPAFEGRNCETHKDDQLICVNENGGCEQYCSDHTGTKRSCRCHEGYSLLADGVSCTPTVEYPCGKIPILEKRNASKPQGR
T1 sequence (P08709 213-466 limits assumed): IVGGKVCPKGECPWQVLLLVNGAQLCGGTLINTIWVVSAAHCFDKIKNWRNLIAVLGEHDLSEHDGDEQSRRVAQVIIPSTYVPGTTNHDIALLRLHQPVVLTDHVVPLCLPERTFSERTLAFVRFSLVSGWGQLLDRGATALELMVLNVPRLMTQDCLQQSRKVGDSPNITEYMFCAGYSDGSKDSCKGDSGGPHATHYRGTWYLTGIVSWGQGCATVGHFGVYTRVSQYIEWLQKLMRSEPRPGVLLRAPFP

B1: hemextin B (protein)
chain: LKCKNKVVPFLKCKNKVVPFLCYKMTLKKVPKIPIKRGCTDACPKSSLLVNVMCCKTDKCN
B2: hemextin A (protein)
chain: LKCKNKLVPFLSKTCPEGKNLCYKMTMLKMPKIPIKRGCTDACPKSSLLVKVVCCNKDKCN
B3: hemextin AB complex: synergistic 1:1 tetrameric complex of hemextin A and hemextin B, reconstituted from equimolar proteins (protein)
chain 1: B2 chain
chain 2: B1 chain

Key:
Assay type in all cases: biochemical
[1] = molecular target: T2, Thrombin (Homo sapiens, UniProt P00734); test: Serine protease specificity, thrombin; conditions: α-thrombin (0.66 nM)/S-2238
T2 construct: FXa performs a proteolytic cleavage of prothrombin to thrombin
Description: (§1) Serine protease specificity—The selectivity profile of anticoagulant proteins and their complex was examined against 12 serine proteases—procoagulant serine proteases (FIXa, FXa, FXIa, FXIIa, plasma kallikrein and thrombin), anticoagulant serine protease (APC), fibrinolytic serine proteases (urokinase, t-PA and plasmin) and classical serine proteases (trypsin and chymotrypsin). Various concentrations of purified hemextin A/hemextin B and reconstituted hemextin AB complex were preincubated with each of the enzymes (Table 1) for a period of five minutes at a temperature of 37° C., followed by the addition of appropriate chromogenic substrate.
(§2) For studies with FXIa, kallikrein and urokinase, the appropriate substrates were determined prior to their screening against the inhibitors. For FXIa, the Vmax for the amidolytic activity corresponding to the chromogenic substrates S-2266, S-2302 and S-2366 was determined. S-2302 was the substrate with the highest Vmax and thus was used in the screening studies. Similar studies with kallikrein and urokinase were carried out with substrates S-2266, S-2302 and S-2288 for kallikrein and S-2444 and S-2484 for urokinase. In a total volume of 200 μl in the individual wells of the microtiter plate, final concentrations of FVIIa (300 nM)/S-2288, FVIIa-sTF (30 nM)/S-2288, FXa (0.75 nM)/S-2765, α-thrombin (0.66 nM)/S-2238, plasmin (2 nM)/S-2366, FIXa (3 μM)/spectrozyme®fIXa, FXIa (0.34 nM)/S-2366, FXIIa (0.4 nM)/S-2302, recombinant tissue plasminogen activator (80 nM)/S-2288, activated protein C (0.34 nM)/S-2366, urokinase/S-2444, plasma kallikrein (0.4 nM)/S-2302, trypsin (2.17 nM)/S-2222 and chymotrypsin (0.4 nM)/S-2586 were measured. The kinetic rate of substrate hydrolysis (mOD/min) was measured over 5 min.

[2] = molecular target: Plasmin (Homo sapiens, UniProt P00747); test: Serine protease specificity, plasmin; conditions: plasmin (2 nM)
Plasmin, sequence (P00747 581-810 limits assumed, species assumed): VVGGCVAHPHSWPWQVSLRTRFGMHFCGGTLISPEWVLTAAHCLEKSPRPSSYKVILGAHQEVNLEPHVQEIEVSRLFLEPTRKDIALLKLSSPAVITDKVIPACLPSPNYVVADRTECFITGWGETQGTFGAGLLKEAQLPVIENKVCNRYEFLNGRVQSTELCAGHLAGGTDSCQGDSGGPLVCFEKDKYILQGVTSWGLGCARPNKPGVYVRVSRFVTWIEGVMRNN
Plasmin, sequence (P00747 97-580 limits assumed, species assumed): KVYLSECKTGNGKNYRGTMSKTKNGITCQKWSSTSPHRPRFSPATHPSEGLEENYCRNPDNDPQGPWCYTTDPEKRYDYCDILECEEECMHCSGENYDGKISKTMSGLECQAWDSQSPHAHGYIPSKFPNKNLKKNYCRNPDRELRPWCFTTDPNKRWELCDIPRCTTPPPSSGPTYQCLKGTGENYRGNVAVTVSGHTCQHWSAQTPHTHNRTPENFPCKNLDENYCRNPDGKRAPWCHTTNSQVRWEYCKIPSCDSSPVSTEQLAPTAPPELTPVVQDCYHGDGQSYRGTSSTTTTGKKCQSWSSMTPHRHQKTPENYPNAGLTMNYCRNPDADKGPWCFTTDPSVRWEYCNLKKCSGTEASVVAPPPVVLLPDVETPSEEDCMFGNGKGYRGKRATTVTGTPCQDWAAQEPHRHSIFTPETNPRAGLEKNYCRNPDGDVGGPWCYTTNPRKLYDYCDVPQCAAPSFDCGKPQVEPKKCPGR
Description: as §1, §2

[3] = molecular target: Urokinase (Homo sapiens, UniProt P00749); test: Serine protease specificity, urokinase; conditions: urokinase/S-2444
Description: as §1, §2

[4] = molecular target: FXa (Homo sapiens, UniProt P00742); test: Serine protease specificity, FXa; conditions: FXa (0.75 nM)/S-2765
FXa, sequence (P00742 41-179 limits assumed): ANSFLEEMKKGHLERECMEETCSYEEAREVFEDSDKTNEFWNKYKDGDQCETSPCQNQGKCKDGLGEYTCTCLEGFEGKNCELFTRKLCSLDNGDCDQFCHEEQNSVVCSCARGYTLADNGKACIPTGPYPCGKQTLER
FXa, sequence (P00742 235-488 limits assumed): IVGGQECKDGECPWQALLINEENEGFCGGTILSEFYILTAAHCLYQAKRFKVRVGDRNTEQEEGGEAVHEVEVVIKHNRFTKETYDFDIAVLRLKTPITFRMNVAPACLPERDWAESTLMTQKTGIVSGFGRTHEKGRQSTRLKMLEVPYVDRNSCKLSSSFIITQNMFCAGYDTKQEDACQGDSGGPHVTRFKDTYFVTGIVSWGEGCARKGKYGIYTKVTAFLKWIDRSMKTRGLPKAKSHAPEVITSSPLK
Description: as §1, §2

[5] = molecular target: Plasma Kallikrein (Homo sapiens, UniProt P03952); test: Serine protease specificity, plasma kallikrein; conditions: for Observed Effect, plasma kallikrein amidolytic activity: plasma kallikrein (0.4 nM)/S-2302; for inhibitory potency towards FVIIa versus plasma kallikrein: FVIIa in the absence or presence of sTF
Plasma Kallikrein, sequence (P03952 391-638 limits assumed, species assumed): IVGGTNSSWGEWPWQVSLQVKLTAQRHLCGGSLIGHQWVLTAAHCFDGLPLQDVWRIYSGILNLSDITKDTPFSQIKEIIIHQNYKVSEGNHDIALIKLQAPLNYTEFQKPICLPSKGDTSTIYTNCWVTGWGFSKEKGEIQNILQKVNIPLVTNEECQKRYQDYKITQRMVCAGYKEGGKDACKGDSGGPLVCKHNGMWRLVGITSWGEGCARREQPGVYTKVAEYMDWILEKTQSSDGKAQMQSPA
Plasma Kallikrein, sequence (P03952 20-390 limits assumed, species assumed): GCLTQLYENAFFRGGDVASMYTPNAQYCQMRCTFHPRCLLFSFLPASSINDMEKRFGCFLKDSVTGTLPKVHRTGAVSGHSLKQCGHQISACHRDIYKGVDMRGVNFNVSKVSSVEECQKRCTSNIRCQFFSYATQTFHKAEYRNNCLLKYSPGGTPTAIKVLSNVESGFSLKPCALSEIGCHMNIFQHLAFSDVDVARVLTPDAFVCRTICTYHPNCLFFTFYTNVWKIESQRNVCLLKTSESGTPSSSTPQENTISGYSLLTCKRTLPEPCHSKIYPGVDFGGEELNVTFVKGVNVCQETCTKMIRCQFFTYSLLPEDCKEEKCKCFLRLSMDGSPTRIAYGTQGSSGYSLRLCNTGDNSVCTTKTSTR
Description: as §1, §2

[6] = molecular target: T3, TF-FVIIa complex (Homo sapiens, UniProt P08709); test: Reconstituted extrinsic tenase complex, FXa formation; conditions: for inhibition of extrinsic tenase activity: 10 pM FVIIa, 70 nM TF, 30 nM FX, FXa by S-2222
T3 construct: tissue Dade Behring Marburg, Germany (TF, Innovin only); host or cells: human plasma (FVIIa)
T3 sequence (P13726 33-295 partner, one chain of several): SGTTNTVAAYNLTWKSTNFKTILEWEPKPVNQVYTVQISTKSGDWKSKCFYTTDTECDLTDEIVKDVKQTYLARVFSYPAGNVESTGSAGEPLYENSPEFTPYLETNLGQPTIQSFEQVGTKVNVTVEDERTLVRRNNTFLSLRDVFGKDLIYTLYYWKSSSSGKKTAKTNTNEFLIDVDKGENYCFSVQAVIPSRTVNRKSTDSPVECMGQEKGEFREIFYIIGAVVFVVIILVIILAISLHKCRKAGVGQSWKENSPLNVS
Description: Reconstitution of the extrinsic tenase complex—TF-FVIIa complex was reconstituted by incubating 10 pM FVIIa with 70 nM of recombinant human TF (Innovin) in Buffer A (20 mM HEPES, 150 mM NaCl, 10 mM CaCl2 and 1% BSA, pH 7.4) for 10 min at 37° C. Then FX was added to the mixture to obtain a final concentration of 30 nM. The activation was stopped by the addition 50 μl of stop buffer (20 mM HEPES, 150 mM NaCl, 50 mM EDTA and 1% BSA, pH 7.4) to 50 μl aliquots of the reaction mixture after 15 min incubation. FXa formed was measured by the hydrolysis 1 mM of S-2222 in Buffer A in a microtiter plate reader at 405 nm. The inhibitory effect on extrinsic tenase activity was determined by adding the individual proteins or the anticoagulant complex 15 min prior to FX addition.

[7] = molecular target: Factor XIa (Homo sapiens, UniProt P03951); test: Serine protease specificity, FXIa; conditions: FXIa (0.34 nM)
Factor XIa, sequence (P03951 388-625 limits assumed): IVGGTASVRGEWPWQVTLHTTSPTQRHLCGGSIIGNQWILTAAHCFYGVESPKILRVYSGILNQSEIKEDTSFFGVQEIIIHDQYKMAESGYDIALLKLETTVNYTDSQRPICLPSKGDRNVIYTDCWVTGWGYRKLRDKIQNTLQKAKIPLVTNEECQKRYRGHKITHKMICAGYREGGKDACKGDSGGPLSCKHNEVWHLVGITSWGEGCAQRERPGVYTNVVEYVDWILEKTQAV
Factor XIa, sequence (P03951 19-387 limits assumed): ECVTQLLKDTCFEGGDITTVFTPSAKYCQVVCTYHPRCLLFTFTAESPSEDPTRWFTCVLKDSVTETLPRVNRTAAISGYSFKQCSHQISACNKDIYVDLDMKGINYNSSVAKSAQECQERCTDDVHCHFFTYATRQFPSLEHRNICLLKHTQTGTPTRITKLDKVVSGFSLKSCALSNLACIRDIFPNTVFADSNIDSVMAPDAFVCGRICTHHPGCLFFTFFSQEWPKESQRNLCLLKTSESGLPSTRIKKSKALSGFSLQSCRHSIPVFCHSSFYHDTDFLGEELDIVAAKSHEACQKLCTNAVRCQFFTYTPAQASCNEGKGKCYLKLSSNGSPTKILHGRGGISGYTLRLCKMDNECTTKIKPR
Description: as §1, §2

[8] = system: Chymotrypsin; test: Serine protease specificity, chymotrypsin; conditions: chymotrypsin (0.4 nM)/S-2586
Description: as §1, §2

[9] = molecular target: t-PA (Homo sapiens, UniProt P00750); test: Serine protease specificity, t-PA; conditions: recombinant tissue plasminogen activator (80 nM)/S-2288
t-PA, sequence (P00750 36-562, species assumed): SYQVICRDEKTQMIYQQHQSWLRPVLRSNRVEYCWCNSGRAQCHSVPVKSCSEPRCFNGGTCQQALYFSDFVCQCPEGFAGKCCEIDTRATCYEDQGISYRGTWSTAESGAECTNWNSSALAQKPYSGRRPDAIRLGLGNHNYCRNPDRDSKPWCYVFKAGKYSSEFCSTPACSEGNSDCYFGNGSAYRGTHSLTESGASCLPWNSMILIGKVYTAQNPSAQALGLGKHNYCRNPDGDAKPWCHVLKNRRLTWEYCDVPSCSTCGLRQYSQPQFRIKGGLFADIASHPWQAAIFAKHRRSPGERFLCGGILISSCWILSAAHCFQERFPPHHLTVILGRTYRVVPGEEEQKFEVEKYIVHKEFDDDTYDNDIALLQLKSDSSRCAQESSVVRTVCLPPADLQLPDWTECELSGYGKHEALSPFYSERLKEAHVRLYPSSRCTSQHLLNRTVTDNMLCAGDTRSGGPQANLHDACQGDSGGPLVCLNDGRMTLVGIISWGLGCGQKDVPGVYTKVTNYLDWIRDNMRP
Description: as §1, §2

[10] = system: Factor XIIa; test: Serine protease specificity, FXIIa; conditions: FXIIa (0.4 nM)/S-2302
Factor XIIa, sequence (P00748 373-615 limits assumed): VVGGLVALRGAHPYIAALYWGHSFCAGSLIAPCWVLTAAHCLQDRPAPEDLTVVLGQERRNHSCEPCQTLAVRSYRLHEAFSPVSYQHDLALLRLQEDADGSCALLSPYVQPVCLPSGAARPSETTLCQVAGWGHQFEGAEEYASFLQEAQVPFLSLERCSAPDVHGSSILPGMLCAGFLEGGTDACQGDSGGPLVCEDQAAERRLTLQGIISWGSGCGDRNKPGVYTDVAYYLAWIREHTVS
Description: as §1, §2

[11] = molecular target: T1, FVIIa; test: FVIIa amidolytic activity; conditions: absence of sTF; for inhibition of FVIIa amidolytic activity: FVIIa (300 nM)/S-2288
Description: as §1, §2

[12] = molecular target: Factor IXa (Homo sapiens, UniProt P00740); test: Serine protease specificity, FIXa; conditions: FIXa (3 μM)/Spectrozyme fIXa
Description: as §1, §2

[13] = system: Trypsin; test: Serine protease specificity, trypsin; conditions: trypsin (2.17 nM)/S-2222
Description: as §1, §2

[14] = molecular target: APC (Homo sapiens, UniProt P04070); test: Serine protease specificity, APC; conditions: activated protein C (0.34 nM)/S-2366
APC, sequence (P04070 43-197 limits assumed): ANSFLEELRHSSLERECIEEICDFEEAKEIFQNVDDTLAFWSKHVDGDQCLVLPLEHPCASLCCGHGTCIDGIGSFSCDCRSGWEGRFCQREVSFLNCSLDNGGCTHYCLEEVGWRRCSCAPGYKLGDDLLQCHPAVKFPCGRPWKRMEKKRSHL
APC, sequence (P04070 212-461 limits assumed): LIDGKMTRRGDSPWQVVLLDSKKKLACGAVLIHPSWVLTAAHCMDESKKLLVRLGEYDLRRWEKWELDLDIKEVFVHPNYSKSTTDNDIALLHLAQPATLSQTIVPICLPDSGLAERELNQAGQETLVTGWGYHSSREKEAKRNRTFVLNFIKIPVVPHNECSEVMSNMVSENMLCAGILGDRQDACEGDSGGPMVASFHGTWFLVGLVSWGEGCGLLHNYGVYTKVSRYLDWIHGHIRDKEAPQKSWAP
Description: as §1, §2

Molecule	Observed Effect, thrombin amidolytic activity [1]	Observed Effect, plasmin amidolytic activity [2]	Observed Effect, urokinase amidolytic activity [3]	Observed Effect, FXa amidolytic activity [4]	Observed Effect, plasma kallikrein amidolytic activity [5]	inhibition of extrinsic tenase activity [6]	inhibitory activity of hemextin A on extrinsic tenase with increasing hemextin B ([6]; hemextin A constant at 50 μM)	Observed Effect, Factor XIa amidolytic activity [7]	Observed Effect, chymotrypsin amidolytic activity [8]	Observed Effect, t-PA amidolytic activity [9]	Observed Effect, Factor XIIa amidolytic activity [10]	inhibition of FVIIa amidolytic activity [11]	Observed Effect, Factor IXa amidolytic activity [12]	Observed Effect, trypsin amidolytic activity [13]	Observed Effect, APC amidolytic activity [14]	inhibitory potency towards FVIIa versus plasma kallikrein [5]	IC50 [11]
B1	no inhibitory activity	no inhibitory activity	no inhibitory activity	no inhibitory activity	did not inhibit	did not mediate any inhibitory activity	increases with the increasing concentrations of hemextin B until the ratio reached 1:1	no inhibitory activity	no inhibitory activity	no inhibitory activity	no inhibitory activity	did not exhibit any inhibitory activity	no inhibitory activity	no inhibitory activity	no inhibitory activity	–	–
B2	no inhibitory activity	no inhibitory activity	no inhibitory activity	no inhibitory activity	inhibit plasma kallikrein in a dose-dependant manner; also recorded: inhibit the amidolytic activity of plasma kallikrein	mild inhibitory activity at higher concentrations	–	no inhibitory activity	no inhibitory activity	no inhibitory activity	no inhibitory activity	potent inhibitory activity	no inhibitory activity	no inhibitory activity	no inhibitory activity	at least 50 times	~105 nM
B3	no inhibitory activity	no inhibitory activity	no inhibitory activity	no inhibitory activity	inhibit plasma kallikrein in a dose-dependant manner; also recorded: inhibit the amidolytic activity of plasma kallikrein	completely inhibited	–	no inhibitory activity	no inhibitory activity	no inhibitory activity	no inhibitory activity	potent inhibitory activity	no inhibitory activity	no inhibitory activity	no inhibitory activity	at least 50 times	~105 nM
